The target of this assay is 4-HNE-modified recombinant C99 with mutation Lys53Arg (human). The experiment in a line: SDS-PAGE with Western blot; recombinant C99 or C99^Lys53Arg reacted with 50-fold (R)-4-HNE (25 mM HEPES, 150 mM NaCl, pH 7.4, 37 °C, 1 h); C99 detected by C1/6.1 antibody, adducts by 4-HNE antibody; oligomer bands on the gel.

Consider “4-HNE-modified recombinant C99 with mutation Lys53Arg (domain or fragment)”, for which the stoichiometry N came out at 2.

These data come from publication PMC10959958.
